Assay results from patent publication US20130058902A1, “DENDRITIC CELL SUBSETS FOR GENERATING INDUCED TOLEROGENIC DENDRITIC CELLS AND RELATED COMPOSITIONS AND METHODS” (Selecta Biosciences, Inc., priority 2011, published 2013).

System: DCs in the spleen
Assay: Expansion of spleen DCs in donor mice inoculated with FLT-3 ligand expressing melanoma cells
Type: in vivo, C57BL/6 mice
Settings: spleen of syngeneic donor mice inoculated 10 days earlier with FLT-3 ligand expressing melanoma cells
Source text: For each treatment day syngeneic donor mice were inoculated 10 days earlier with Fms-like tyrosine kinase 3 (FLT-3) ligand expressing melanoma cells s.s. (performed on days−10, 4, 18 in donor C57BL/6 age-matched mice). Flt3 ligand is a growth factor for DCs and allows for greater total number of DCs to be present in the spleen. This increased the number of DCs more than 10-fold and allowed for more cells to be available for in vitro treatment and in vivo administration.

B1: Flt3 ligand: growth factor for DCs, delivered by FLT-3 ligand expressing melanoma cells inoculated into donor mice (protein, UniProt P49772 27-232, looked up)
Fms-related tyrosine kinase 3 …: GTPDCYFSHSPISSNFKVKFRELTDHLLKDYPVTVAVNLQDEKHCKALWSLFLAQRWIEQLKTVAGSKMQTLLEDVNTEIHFVTSCTFQPLPECLRFVQTNISHLLKDTCTQLLALKPCIGKACQNFSRCLEVQCQPDSSTLLPPRSPIALEATELPEPRPRQLLLLLLLLLPLTLVLLAAAWGLRWQRARRRGELHPGVPLPSHP
increase of the number of DCs: more than 10 fold
